In test [1] the target is T1, Human VSIG4-L-Fc (human).
T1 construct: also called hVSIG4-L-Fc; hVSIG4-L
The test is described as follows: BLI cross-blocking on hVSIG4-L-Fc, competitor 12A12 first.

The target of test [2] is T1, Human VSIG4-L-Fc. The test is described as follows: BLI binning on hVSIG4-L-Fc, competitor 15A06 first.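 Further: normalized to binding of second antibody without first competitor antibody.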
Test [3] deals with T2, Human VSIG4-L-CHO (human VSIG4 long isoform on CHO-K1 cells) (human, UniProt Q9Y279 20-399).
T2 construct: also called hVSIG4-L (flow cytometry)
T2 sequence: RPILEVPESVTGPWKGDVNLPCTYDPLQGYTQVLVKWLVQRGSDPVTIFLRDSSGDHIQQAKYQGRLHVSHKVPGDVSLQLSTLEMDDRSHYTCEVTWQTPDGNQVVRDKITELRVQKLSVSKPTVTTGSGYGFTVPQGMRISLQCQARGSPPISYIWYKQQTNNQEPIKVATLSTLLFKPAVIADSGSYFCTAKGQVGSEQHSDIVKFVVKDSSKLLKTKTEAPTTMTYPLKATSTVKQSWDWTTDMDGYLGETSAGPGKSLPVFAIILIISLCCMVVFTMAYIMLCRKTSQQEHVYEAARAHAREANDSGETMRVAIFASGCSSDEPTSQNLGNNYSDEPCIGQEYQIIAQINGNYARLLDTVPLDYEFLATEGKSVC
The test can be described thus: flow cytometry (FJB), 200 nM mAb, huVSIG4-L CHO-K1 over parental CHO-K1. In general terms: A flow cytometer gives signals particle by particle.

Test [4] has as its target T3, Human VSIG4-L-His (human, UniProt Q9Y279 20-283).
T3 construct: long isoform ECD with His tag; also called hVSIG4-L
T3 sequence: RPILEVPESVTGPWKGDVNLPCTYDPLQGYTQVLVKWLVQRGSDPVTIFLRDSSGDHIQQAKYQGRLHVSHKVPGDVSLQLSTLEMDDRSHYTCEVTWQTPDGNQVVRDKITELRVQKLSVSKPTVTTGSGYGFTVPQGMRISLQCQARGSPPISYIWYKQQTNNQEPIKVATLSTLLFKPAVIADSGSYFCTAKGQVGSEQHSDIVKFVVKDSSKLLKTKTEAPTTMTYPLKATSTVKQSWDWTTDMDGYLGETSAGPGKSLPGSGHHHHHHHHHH
The test can be described thus: SPR (FJB).

Test [5] concerns the target T1, Human VSIG4-L-Fc. The test is described as follows: BLI binning on hVSIG4-L-Fc, competitor 13H11 first.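 Further: normalized to binding of second antibody without first competitor antibody.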
In test [6] the target is T3, Human VSIG4-L-His. The test is described as follows: BLI (Octet), IgG on AHC sensor, antigen 100 nM. For orientation: In BLI a coated tip is dipped into the sample, and binding shifts an interference pattern.
Test [7] concerns the target T4, Cynomolgus Monkey VSIG4-L-His (cynomolgus monkey).
T4 construct: ECD with His tag; also called cyVSIG4-L; cyno VSIG4-L-His
T4 chain: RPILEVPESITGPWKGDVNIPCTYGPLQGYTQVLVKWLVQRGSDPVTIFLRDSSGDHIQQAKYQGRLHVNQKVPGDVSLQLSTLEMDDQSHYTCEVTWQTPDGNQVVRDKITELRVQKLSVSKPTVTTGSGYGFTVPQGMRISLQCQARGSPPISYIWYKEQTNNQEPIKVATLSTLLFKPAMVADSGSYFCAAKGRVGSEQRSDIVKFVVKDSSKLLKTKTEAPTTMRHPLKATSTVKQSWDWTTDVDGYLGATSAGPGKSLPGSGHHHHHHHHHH
The test can be described thus: BLI (Octet), IgG on AHC sensor, antigen 100 nM.

The target in the next test is T5, Human VSIG4-S-His (human, UniProt Q9Y279 20-283).
T5 construct: short isoform ECD with His tag; also called hVSIG4-S; VISG4-S-His
T5 sequence: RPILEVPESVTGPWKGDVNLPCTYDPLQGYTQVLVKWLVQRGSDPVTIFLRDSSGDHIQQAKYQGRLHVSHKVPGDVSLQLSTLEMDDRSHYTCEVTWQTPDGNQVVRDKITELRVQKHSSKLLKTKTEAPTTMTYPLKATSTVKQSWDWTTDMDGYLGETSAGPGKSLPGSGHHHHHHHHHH
The test can be described thus: BLI (Octet), IgG on AHC sensor, antigen 100 nM.

B1: 12A12 mouse/human chimeric IgG4 (S228P) kappa (antibody, V domains shown)
VH: QVQMKQSGAELAKPGASVKMSCKASGYTFTNYWMHWVKQRPGQGLEWIGYINPSTGYTDYNQNFKDRATLTADKSSSTAYMQLSSLTSEDSAVYYCIRGSDYYGRDYWGQGTTLTVSS
VL: DIQMTQTTSSLSASLGDRVTISCRASQDISNYLNWYQQKPDGTLKLLIYYTSRLHSGVPSRFSGSGSGTDYSLTISNLEQEDIATYFCRQGNTLPWTFGGGTKLEIKR
As for B1, the “binding signal (nm shift)” value with Human VSIG4-L-Fc [1] turned out to be 0.13 nm. The “normalized maximum binding nm shift” value with Human VSIG4-L-Fc [2] was 0.77 normalized; with Human VSIG4-L-Fc [5], 0.74 normalized. Also, in test [3], the “Binding (200 nM) Fold-Over-Parental” value worked out at 291 fold. The dissociation constant Kd (as a rule, the concentration at which binding is half-saturated) with Human VSIG4-L-His [4] came to 8.6 nM; with Human VSIG4-L-His [6], 19.1 nM; in test [7], 19.5 nM; in the test with Human VSIG4-S-His, 15.8 nM.

The values are drawn from patent publication US20230348603A1 (VERSEAU THERAPEUTICS, published 2023).
